Laboratory results as given in paper PMC10042821, “Cryo-EM structure of human eIF5A-DHS complex reveals the molecular basis of hypusination-associated neurodegenerative disorders” (Nature Communications, 2023).

Columns and labels:
Test in all cases: MST; His-tagged DHS variants labelled with RED-tris-NTA 2nd Generation, 8.32 nM; eIF5A titrated, sixteen dilutions 0.00175–57.5 μM; 50 mM Tris, 200 mM NaCl, 5 mM β-ME pH 8; Monolith NT.115, 40% excitation power, 60% MST power; no NAD or SPD
Conditions in all cases: both partners purified
[1] = target: T1, deoxyhypusine synthase Y250A, His-tagged (human, UniProt P49366 1-369, Y250A, RED-tris-NTA 2nd Generation dye on the His tag)
T1 construct: human deoxyhypusine synthase, Uniprot P49366, residues 1-369, site-directed mutant of the pET24d full-length construct; also called DHS Y250A; source: E. coli, purified; not shown: 6xHis, N-terminal, kept
T1 sequence (looked up): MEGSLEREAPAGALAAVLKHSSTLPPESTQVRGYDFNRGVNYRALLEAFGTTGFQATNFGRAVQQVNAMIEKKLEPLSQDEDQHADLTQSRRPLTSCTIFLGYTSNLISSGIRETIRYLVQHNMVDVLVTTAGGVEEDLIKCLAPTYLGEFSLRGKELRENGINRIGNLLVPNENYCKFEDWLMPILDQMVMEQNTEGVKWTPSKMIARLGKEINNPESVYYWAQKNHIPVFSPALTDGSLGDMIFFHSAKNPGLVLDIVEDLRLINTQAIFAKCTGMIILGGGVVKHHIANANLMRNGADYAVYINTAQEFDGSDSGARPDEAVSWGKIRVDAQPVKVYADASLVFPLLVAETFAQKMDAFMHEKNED

[2] = target: T2, deoxyhypusine synthase E137A, His-tagged (human, UniProt P49366 1-369, E137A, RED-tris-NTA 2nd Generation dye on the His tag)
T2 construct: human deoxyhypusine synthase, Uniprot P49366, residues 1-369, site-directed mutant of the pET24d full-length construct; also called DHS E137A; source: E. coli, purified; not shown: 6xHis, N-terminal, kept
T2 sequence (looked up): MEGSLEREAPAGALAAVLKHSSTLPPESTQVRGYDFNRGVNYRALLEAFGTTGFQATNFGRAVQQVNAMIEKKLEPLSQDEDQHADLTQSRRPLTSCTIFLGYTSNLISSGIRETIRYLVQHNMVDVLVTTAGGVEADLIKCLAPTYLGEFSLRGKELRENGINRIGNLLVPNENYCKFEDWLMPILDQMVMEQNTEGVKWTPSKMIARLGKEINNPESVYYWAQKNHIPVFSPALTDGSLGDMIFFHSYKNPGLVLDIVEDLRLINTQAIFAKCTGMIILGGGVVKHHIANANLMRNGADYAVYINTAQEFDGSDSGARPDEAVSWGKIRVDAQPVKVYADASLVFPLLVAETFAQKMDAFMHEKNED

[3] = target: T3, deoxyhypusine synthase S240A, His-tagged (human, UniProt P49366 1-369, S240A, RED-tris-NTA 2nd Generation dye on the His tag)
T3 construct: human deoxyhypusine synthase, Uniprot P49366, residues 1-369, site-directed mutant of the pET24d full-length construct; also called DHS S240A; source: E. coli, purified; not shown: 6xHis, N-terminal, kept
T3 sequence (looked up): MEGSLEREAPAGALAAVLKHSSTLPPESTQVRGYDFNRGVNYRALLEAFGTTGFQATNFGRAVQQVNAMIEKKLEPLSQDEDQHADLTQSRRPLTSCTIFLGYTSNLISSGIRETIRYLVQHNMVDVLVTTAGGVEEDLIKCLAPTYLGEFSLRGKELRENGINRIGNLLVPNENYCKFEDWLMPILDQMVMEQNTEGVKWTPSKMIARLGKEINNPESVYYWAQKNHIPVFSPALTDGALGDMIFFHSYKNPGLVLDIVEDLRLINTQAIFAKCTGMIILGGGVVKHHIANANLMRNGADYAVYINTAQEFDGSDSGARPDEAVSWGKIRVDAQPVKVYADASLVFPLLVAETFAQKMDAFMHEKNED

[4] = target: T4, deoxyhypusine synthase F247A, His-tagged (human, UniProt P49366 1-369, F247A, RED-tris-NTA 2nd Generation dye on the His tag)
T4 construct: human deoxyhypusine synthase, Uniprot P49366, residues 1-369, site-directed mutant of the pET24d full-length construct; also called DHS F247A; source: E. coli, purified; not shown: 6xHis, N-terminal, kept
T4 sequence (looked up): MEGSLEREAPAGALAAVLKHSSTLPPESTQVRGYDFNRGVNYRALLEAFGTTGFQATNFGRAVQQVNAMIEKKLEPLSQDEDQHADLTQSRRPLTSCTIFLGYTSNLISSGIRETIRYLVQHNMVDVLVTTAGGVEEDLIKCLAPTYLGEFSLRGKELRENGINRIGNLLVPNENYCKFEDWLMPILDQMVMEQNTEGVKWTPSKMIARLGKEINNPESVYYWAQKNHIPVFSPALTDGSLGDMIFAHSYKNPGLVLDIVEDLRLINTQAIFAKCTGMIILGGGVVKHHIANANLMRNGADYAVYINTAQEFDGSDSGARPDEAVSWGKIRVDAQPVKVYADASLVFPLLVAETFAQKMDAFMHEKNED

B1: eukaryotic translation factor 5A (eIF5A-1), residues 15-151 (domain or fragment)
chain: not shown
notes: human eIF5A1, residues 15-151, from pET28-MHL (Addgene); The purification protocol removes the tag with TEV; source: E. coli, purified (HisTrap, TEV cleavage, reverse HisTrap, SEC); not shown: His tag, N-terminal, cleaved
[1]
  Kd: > 5000 nM
[2]
  Kd: 2550 ± 880 nM
[3]
  Kd: 2660 ± 434 nM
[4]
  Kd: > 5000 nM
